Test results as given in doi:10.1101/2025.06.17.660062 (bioRxiv, 2025).

Tests used:
[1] = biological target: mCherry-RZZ (ROD-Zwilch-ZW10 complex, wild type) (UniProt P50748 1-2209; Q9H900 1-591; O43264 1-779); experiment: SEC
[2] = biological target: R^EEZZ (RZZ with phosphomimetic ROD T13E-S15E) (UniProt P50748 1-2209; Q9H900 1-591; O43264 1-779, T13E | S15E); experiment: pull-down
Sequence of R^EEZZ (RZZ with phosphomimetic ROD T13E-S15E) (P50748 whole entry T13E/S15E, chain 1 of 3): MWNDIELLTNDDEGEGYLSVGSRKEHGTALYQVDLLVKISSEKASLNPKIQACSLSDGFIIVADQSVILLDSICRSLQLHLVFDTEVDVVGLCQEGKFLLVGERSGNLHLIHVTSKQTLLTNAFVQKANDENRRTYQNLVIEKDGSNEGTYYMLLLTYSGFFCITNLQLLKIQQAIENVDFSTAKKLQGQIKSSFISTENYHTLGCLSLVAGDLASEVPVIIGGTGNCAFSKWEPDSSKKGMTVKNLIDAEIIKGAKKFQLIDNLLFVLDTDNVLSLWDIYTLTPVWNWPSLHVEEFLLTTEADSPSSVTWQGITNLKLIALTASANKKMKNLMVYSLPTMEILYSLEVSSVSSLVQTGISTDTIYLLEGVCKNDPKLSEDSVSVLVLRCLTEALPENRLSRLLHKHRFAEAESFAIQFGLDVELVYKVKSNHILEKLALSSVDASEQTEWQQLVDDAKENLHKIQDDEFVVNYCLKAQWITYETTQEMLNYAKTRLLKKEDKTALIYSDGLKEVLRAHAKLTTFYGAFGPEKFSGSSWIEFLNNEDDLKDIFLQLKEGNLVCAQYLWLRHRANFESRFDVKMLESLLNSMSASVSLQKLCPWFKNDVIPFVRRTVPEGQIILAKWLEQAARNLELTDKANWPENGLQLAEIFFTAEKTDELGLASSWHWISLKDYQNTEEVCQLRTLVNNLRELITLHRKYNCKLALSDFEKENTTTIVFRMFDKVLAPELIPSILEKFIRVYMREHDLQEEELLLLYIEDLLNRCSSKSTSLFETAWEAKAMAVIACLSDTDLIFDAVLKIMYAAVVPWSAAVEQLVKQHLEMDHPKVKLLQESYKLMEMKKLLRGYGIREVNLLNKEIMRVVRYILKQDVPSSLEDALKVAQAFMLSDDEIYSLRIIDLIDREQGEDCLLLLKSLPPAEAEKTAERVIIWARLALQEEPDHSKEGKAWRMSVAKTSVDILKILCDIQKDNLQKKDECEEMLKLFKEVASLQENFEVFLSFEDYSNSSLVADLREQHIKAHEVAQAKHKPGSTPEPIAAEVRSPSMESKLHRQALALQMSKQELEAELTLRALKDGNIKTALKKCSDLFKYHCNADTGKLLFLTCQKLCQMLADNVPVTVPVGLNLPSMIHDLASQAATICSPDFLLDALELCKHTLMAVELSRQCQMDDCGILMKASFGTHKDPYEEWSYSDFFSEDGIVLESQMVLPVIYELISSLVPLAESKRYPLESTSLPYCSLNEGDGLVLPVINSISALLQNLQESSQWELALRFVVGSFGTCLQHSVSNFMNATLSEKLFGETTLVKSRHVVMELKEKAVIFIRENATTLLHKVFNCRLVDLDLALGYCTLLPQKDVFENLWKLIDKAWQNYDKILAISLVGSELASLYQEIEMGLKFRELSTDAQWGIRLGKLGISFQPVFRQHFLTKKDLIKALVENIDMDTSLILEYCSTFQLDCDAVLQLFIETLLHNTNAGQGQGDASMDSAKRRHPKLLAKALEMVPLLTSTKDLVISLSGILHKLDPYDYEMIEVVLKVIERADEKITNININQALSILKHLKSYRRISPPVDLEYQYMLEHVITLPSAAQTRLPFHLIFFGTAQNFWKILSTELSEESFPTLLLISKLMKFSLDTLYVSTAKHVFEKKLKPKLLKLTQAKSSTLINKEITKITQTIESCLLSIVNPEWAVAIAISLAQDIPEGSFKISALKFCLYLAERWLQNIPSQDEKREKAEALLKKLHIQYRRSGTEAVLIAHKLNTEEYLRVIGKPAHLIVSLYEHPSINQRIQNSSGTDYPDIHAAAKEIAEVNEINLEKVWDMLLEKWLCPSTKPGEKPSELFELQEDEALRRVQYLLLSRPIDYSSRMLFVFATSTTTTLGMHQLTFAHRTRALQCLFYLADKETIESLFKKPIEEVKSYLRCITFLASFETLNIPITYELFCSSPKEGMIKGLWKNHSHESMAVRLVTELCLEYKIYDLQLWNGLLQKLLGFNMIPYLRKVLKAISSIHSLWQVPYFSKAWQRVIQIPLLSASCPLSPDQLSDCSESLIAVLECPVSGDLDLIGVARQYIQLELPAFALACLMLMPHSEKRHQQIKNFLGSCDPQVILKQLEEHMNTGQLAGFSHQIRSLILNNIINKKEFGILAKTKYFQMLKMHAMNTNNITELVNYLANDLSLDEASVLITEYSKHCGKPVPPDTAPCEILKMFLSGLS
Sequence of R^EEZZ (RZZ with phosphomimetic ROD T13E-S15E) (Q9H900 whole entry, chain 2 of 3): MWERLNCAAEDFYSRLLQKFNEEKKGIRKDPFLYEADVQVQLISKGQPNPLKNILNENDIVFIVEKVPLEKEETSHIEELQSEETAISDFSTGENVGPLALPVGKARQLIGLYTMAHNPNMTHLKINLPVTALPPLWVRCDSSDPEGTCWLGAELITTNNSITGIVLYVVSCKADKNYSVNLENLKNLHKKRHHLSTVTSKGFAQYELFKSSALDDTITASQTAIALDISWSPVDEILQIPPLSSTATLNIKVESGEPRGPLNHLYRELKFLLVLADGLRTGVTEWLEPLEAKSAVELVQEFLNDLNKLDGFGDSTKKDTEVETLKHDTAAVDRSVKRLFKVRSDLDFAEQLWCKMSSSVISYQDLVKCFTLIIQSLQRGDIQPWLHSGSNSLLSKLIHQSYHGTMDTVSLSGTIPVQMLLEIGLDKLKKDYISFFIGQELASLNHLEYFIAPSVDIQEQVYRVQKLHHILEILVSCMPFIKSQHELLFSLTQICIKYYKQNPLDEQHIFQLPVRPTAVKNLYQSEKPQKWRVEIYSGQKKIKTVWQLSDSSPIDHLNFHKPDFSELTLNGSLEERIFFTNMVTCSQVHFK
Sequence of R^EEZZ (RZZ with phosphomimetic ROD T13E-S15E) (O43264 whole entry, chain 3 of 3): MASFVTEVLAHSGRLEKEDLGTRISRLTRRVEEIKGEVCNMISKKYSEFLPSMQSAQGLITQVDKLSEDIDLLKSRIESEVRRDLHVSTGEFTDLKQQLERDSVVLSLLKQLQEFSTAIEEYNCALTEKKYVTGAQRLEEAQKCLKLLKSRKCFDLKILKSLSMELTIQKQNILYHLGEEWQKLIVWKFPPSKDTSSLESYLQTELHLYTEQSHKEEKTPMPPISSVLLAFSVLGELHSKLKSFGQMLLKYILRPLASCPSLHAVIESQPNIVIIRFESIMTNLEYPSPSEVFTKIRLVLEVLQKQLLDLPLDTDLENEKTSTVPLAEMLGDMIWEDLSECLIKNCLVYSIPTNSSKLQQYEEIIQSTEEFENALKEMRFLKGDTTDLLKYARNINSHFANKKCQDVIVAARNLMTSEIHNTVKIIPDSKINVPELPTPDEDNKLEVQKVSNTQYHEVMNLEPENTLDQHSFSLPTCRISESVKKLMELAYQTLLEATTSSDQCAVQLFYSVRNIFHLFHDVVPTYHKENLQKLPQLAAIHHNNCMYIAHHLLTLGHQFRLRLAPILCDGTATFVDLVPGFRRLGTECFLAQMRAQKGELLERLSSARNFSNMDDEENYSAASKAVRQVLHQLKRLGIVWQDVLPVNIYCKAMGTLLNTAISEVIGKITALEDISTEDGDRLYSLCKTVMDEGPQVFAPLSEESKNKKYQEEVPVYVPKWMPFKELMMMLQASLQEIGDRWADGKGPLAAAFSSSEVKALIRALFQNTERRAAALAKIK

Sequence of mCherry-RZZ (ROD-Zwilch-ZW10 complex, wild type) (P50748 whole entry, chain 1 of 3): as the sequence (P50748 whole entry T13E/S15E, chain 1 of 3) above, with E13T, E15S counted along it
Sequence of mCherry-RZZ (ROD-Zwilch-ZW10 complex, wild type) (Q9H900 whole entry, chain 2 of 3): as the sequence (Q9H900 whole entry, chain 2 of 3) above
Sequence of mCherry-RZZ (ROD-Zwilch-ZW10 complex, wild type) (O43264 whole entry, chain 3 of 3): as the sequence (O43264 whole entry, chain 3 of 3) above

B1: GST-BUB1^467-521 (domain or fragment, UniProt O43683 467-521, looked up)
chain: ALGFIMNMFQAPTLPDISDDKDEWQSLDQNEDAFEAQFQKNVRSSGAWGVNKIIS
binding result [1]: binds | binding result [2]: binds
